The results in this text go back to paper PMC3102710.

In the experiment the target is SARS-CoV nsp10 (SARS-CoV Frankfurt-1). The experiment is described as follows: pull-down.

Take SARS-CoV nsp16 (enzyme): the % associated came out at 100%.
